The assay concerns the target TCRβ chain of the 5c.c7 TCR (Vβ3) (mouse (T-cells of 5c.c7 TCR transgenic mice)). The assay can be described thus: FRET or BRET. (In general: BRET reads energy transfer from a luciferase to a nearby fluorophore.)

Turning to “CD3ε (from UniProt P22646 22-189) (natural protein)”, the FRET yield was determined as 25%.

For the origin of these results see paper PMC7612939.
